Ends that are not written are not given here.
Tests used:
LRP-1 cluster II = molecular target: T1, LRP-1 cluster II (Homo sapiens, UniProt Q07954); assay: Bead binding assay (FACS); conditions: 10 nM LRP-1 cluster II, biotinylated peptide on beads
T1 construct: detected by anti-human LRP-1 antibody
Method: (§1) Briefly, 50 μl of Myone Dynabeads were washed multiple times and incubated with 100 μl of 2 mM biotinylated peptide at room temperature for 2h. Beads were washed twice with PBS, 0.01% Tween 20-DPBS, and 0.01% PBS-BSA. The beads were then incubated overnight with 10 nM LRP-1 cluster II, or LRP-1 cluster III, and Alexa Fluor 647 anti-human LRP-1 antibody (1:200) in PBS with 0.1% BSA (FIGS. 19A-19B).
(§2) The beads were washed several times and analyzed by FACS. Samples are indicated as follows: • Negative control (−ve control): beads incubated with biotin (non-peptide), LRP-1 cluster III protein, and Alexa Fluor 647 anti-human antibody; • Positive control for the cluster II expts: beads incubated with biotinylated-Angiopep2 peptide, LRP-1 cluster II protein and Alexa Fluor 647 anti-human LRP-1 antibody (see FIG. 19A); and • Positive control for cluster III expts: beads incubated with biotinylated-RPAR peptide, Neuropilin-1 b1b2 protein, (1:200) anti-neuropilin-1 antibody, (1:200) and Alexa Fluor 647 anti-rabbit antibody (see FIG. 19B).
(§3) 10,000 events per condition were analyzed. Experient was performed in three replicates per condition and t-test compared scramble sequence (SARVISRAKLARAL (SEQ ID NO:70)) with Cerepep.

LRP-1 cluster III = molecular target: T2, LRP-1 cluster III (Homo sapiens, UniProt Q07954); assay: Bead binding assay (FACS); conditions: 10 nM LRP-1 cluster III, biotinylated peptide on beads
T2 construct: detected by anti-human antibody
Method: as §1, §2, §3

mouse brain = assay: In vivo play-off screen with 4 CX4CYX peptides; conditions: compared to CAGALCY
NRP-1 = molecular target: T3, NRP-1 (Homo sapiens, UniProt O14786); assay: Peptide-phage binding on ELISA plate
T3 sequence (O14786 273-586 limits assumed): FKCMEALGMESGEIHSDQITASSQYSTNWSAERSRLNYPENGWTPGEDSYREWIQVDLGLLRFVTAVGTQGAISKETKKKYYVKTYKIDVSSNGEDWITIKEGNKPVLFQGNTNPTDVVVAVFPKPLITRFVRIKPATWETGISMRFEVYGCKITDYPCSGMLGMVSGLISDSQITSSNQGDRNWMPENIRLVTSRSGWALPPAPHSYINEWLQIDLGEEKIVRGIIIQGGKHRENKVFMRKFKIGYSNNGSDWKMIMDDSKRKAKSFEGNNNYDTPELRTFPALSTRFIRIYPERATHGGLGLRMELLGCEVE
Method: (§4) Reelin protein (#8546-MR-050; R&D Systems), NRP-1 b1b2 (wt and mutant) or 5% BSA was immobilized on Costar 96-Well ELISA plate (#3590, Corning Life Sciences, Tewksbury, MA, USA). The multiwell plates were coated with 20 μg/ml recombinant protein in 100 μl of PBS overnight at +4 °C, followed by blocking with 1% bovine serum albumin (BSA) in PBS overnight at +4 °C. The phage (5×10^8 pfu in 100 μl of PBS-BSA) was incubated overnight at +4 °C, followed by 6 washes with PBS containing 1% BSA and 0.1% Tween-20 (washing buffer) to remove background phages. BLT5615 OD600=0.5 containing 2 mM IPTG was used to recover the phages and determine the titer of samples.
(§5) Next, an affinity chromatography was performed to identify a receptor of the CVGTNCY (SEQ ID NO:2), and selected a receptor candidate, which is a secreted extracellular matrix protein Reelin. CVGTNCY (SEQ ID NO:2) binding to Reelin protein was tested by cell free method on ELISA plate. Recombinant human Reelin protein (Ser1221-Gln2666; 163 kDa) was used to coat the ELISA plate and the CVGTNCY (SEQ ID NO:2) peptide-phage was allowed to bind to it. After several washes, the titer of the experiment was determined to rate on the binding efficiency.
(§6) Reelin was identified from affinity chromatography proteomics data. […] The binding efficiency was evaluated based on the titer (PFU/ml) of each sample. […]

mutant NRP1 = molecular target: T4, mutant NRP1 (Homo sapiens, UniProt O14786); assay: Peptide-phage binding on ELISA plate
T4 sequence (O14786 273-586 limits assumed): T3 sequence (O14786 273-586 limits assumed)
Method: as §4, §5, §6

mouse CNS = assay: CVGTNCY peptide-phage biodistribution; type: in vivo
Method: (§7) CVGTNCY (SEQ ID NO:2) peptide-phage or control phage were injected iv into mice, after one hour circulation animals were perfused with 20 ml PBS, organs were collected, weighed, and dropped to 1% NP40-LB solution. Organs were homogenized and titer of each tissue was determined. FAM-labeled peptides (2 mM of peptide in PBS) were injected intravenously and 3 hours later the animals were perfused with 20 mL of PBS. The organs were excised, snap-frozen in the vapor of liquid nitrogen, and stored at −80 °C. For confocal microscopy, the tissues were sectioned at 15 μm and stained with antibodies and DAPI.
(§8) To describe the utility of CVGTNCY (SEQ ID NO:2) peptide as a systemic CNS homing peptide, the biodistribution of CVGTNCY (SEQ ID NO:2) peptide-phage as well as peptide-functionalized AgNPs were analyzed in rodents. […] No significant difference between CVGTNCY (SEQ ID NO:2) and G7 titers was determined in the rest of the analyzed organs/tissues).

22 different cell-lines = assay: CVGTNCY peptide-phage binding on cell lines; type: cell-based, human or mouse; conditions: +4 °C, 1 h; over control phage G7
Method: 22 different cell-lines derived from human or mouse tumors or normal tissues were used in the experiments (Table 4).
To evaluate the CVGTNCY (SEQ ID NO:2) peptide-phage binding on cell lines, the CVGTNCY (SEQ ID NO:2) peptide-phage and control G7 phage were incubated on attached cells (except NCH421k cells that grow as speroids) in DMEM-0.5% BSA for 1 hour at +4 °C. Thereafter, the cells were washed four times with DMEM-0.5% BSA and phage was released in 1% NP40-LB to determine the titer of the samples.
An in vitro proximity labeling method was planned to use for the identification of the CVGTNCY (SEQ ID NO:2) peptide receptor. To accomplish receptor search, binding of CVGTNCY (SEQ ID NO:2) peptide-phage on 22 different cell-lines isolated from various tumors and normal tissues was tested.

rat CNS = assay: CVGTNCY peptide-phage biodistribution, rats; type: in vivo; conditions: peptide-phage i.v., 1 h
Method: as §7, §8

T2 sequence (Q07954 2522-2941 limits assumed): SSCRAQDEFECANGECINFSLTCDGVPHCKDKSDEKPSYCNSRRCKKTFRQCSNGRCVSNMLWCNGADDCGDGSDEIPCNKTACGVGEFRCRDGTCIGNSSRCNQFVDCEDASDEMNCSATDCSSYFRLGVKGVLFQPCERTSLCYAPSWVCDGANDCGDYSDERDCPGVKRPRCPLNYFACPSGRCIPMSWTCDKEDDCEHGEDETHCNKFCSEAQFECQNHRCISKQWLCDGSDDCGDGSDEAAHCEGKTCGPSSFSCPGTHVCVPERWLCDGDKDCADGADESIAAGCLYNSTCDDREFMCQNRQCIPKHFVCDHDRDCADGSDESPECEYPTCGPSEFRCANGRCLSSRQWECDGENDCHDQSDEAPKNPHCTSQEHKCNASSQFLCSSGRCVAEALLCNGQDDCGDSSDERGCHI
T1 sequence (Q07954 786-1165 limits assumed): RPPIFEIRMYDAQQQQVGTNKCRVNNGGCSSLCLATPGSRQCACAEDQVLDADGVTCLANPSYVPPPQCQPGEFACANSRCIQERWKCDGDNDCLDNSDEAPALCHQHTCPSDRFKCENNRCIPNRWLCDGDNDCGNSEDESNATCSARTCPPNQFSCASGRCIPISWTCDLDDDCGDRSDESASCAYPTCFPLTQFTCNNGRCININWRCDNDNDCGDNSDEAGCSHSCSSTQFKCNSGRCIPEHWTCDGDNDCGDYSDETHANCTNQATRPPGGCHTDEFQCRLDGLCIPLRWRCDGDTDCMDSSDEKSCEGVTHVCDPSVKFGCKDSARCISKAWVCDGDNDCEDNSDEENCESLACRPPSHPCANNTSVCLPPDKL

For “SRRVISRAKLAAAL [Cerepep, SRRVISRAKLAAAL]”, which “interaction with LRP-1 cluster II” value (LRP-1 cluster II) is on record?
Its value is “interacts with LRP-1 cluster II”.

What about the “interaction with LRP-1 cluster III” value (LRP-1 cluster III) of the same substance?
The value was “interacts with LRP-1 cluster II and cluster III”.

Which “representation in the brain” value (mouse brain) does the source give for CVGTNCY here?
Its value is “highest representation in the brain”.

And the “binding to NRP-1” value (NRP-1)?
Its value is “no binding was detected”.

What about the “binding to mutant NRP1” value (mutant NRP1) of the same substance?
Its value is “no binding was detected”.

And the homing preference (mouse CNS; mouse, in vivo)?
The homing preference was “homes preferentially to the eyes/brain/CNS”.

And the “homing to other organs” value (mouse CNS; peptide-phage i.v., 1 h, mice)?
The value was “did not show a trend of homing”.

What about the “level in CNS and eyes compared to control G7 phage” value (mouse CNS; peptide-phage i.v., 1 h, mice) of the same substance?
The value was “High level”.

And the “regional homing in CNS” value (mouse CNS; peptide-phage i.v., 1 h, mice)?
The value was “tendency to home more to the hippocampus, frontal cortex and cerebellum”.

What about the “peptide-phage binding on cell lines” value (22 different cell-lines) of the same substance?
The value was “minimal binding”.

And the “homing to CNS vs other organs” value (rat CNS)?
The value was “homes preferentially to the CNS than to other organs”.
